The source of these data is patent publication US20240010720A1 (IOMX THERAPEUTICS, published 2024).

Changes are numbered by the printed parent chain. Read-outs that look alike come from different tables or passages of the source.

In assay [1] the target is T1, murine IGSF11 on cells (mouse, UniProt P0C673 23-428).
T1 construct: UniProt P0C673; also called MC38-IGSF11 (murine); CT26-IGSF11 (murine)
T1 sequence: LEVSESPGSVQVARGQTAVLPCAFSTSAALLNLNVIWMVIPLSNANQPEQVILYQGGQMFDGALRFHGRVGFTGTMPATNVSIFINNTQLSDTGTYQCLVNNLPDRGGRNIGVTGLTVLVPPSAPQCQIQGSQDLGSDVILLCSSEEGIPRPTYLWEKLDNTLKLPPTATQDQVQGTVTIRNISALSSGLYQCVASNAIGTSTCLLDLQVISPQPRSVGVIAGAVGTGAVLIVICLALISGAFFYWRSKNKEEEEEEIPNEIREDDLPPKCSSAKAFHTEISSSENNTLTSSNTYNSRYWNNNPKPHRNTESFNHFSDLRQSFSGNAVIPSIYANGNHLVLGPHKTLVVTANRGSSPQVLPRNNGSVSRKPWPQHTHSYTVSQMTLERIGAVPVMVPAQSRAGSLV
Put plainly: FACS, CT26-IGSF11 cells, IgG.
Excerpt: (§1) Unbound antibodies were removed by washing the cells three time with FACS buffer. Bound antibodies were detected with a mouse anti-human IgG antibody conjugated with AlexaFluor647.

Assay [2] deals with T1, murine IGSF11 on cells. Kind of assay: FACS, MC38-IGSF11 cells, IgG. On the technique in general: In flow cytometry, cells or beads pass a laser one at a time.
Excerpt: as §1
The target of assay [3] is T2, recombinant human IGSF11 (VSIG3) extracellular domain (ECD) (human, UniProt Q5DX21 23-241, biotinylated where captured on streptavidin).
T2 construct: also called biotinylated recombinant ECD-IGSF11; IGSF11 (ECD domain)
T2 sequence: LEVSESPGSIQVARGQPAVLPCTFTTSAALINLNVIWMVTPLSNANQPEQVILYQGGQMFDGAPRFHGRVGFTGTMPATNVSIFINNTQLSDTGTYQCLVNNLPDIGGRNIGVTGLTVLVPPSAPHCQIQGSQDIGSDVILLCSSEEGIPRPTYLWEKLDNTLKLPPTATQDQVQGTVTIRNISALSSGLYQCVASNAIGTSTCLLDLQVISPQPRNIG
Kind of assay: ELISA, Fab. In general terms: ELISA stands for enzyme-linked immunosorbent assay.
Description: (§2) In order to identify IGSF11-specific binding ABPs, monoclonal Fabs expressed from E. coli were generated from the enriched set of anti-IGFS11 antibody-expressing phage. After bacterial lysis, the Fabs were tested for their binding properties and cross-reactivity profile on recombinant ECD-IGSF11 (human, mouse and cynomolgus monkey) by standard ELISA. Briefly, biotinylated recombinant ECD-IGSF11 from human, mouse, or cynomolgus monkey were immobilized at 2 ug/mL on a streptavidin-coated 384-well Maxisorp plate. The surface was blocked with 2% (w/v) skim milk powder in PBST. After three wash cycles with PBST, a bacterial lysate of each of the anti-IGSF11 Fabs in 2% (w/v) skim milk powder was applied to the immobilized IGSF11 and incubated for 1 h. After removing all unbound Fab by 3 wash cycles with PBST, bound Fab antibodies were detected with a goat anti-human Fab antibody conjugated with horseradish peroxidase. After three wash cycles with PBST the ELISA was developed with TMB substrate.

In assay [4] the target is T3, recombinant murine IGSF11 extracellular domain (ECD) (mouse, UniProt P0C673 23-240, biotinylated).
T3 construct: also called Mouse IGSF11; murine ECD-IGSF11
T3 sequence: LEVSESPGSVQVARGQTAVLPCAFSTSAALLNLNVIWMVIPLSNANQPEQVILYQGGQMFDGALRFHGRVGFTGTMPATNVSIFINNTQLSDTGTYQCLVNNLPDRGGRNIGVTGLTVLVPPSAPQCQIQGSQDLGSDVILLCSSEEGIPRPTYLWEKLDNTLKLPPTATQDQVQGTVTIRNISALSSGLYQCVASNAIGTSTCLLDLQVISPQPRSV
Kind of assay: ELISA, Fab.
Description: as §2

For assay [5], the target named is T4, recombinant cynomolgus monkey IGSF11 extracellular domain (ECD) (cynomolgus monkey, UniProt Q5DX21 23-241 (human entry), biotinylated).
T4 chain: T2 sequence with P17T, I83V, A185T, S187T
Kind of assay: ELISA, Fab.
Description: as §2

The target of the next assay is T5, Streptavidin (UniProt P22629 37-163, limits assumed).
T5 construct: also called negative antigen; irrelevant antigen
T5 sequence (P22629 37-163 limits assumed): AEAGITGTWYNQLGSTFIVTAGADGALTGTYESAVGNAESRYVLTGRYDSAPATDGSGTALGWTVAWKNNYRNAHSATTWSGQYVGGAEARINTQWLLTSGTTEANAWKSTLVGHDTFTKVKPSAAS
Kind of assay: ELISA, Fab.

Assay [6] addresses T6, human IGSF11 (VSIG3) on cells (human, UniProt Q5DX21 23-431).
T6 sequence: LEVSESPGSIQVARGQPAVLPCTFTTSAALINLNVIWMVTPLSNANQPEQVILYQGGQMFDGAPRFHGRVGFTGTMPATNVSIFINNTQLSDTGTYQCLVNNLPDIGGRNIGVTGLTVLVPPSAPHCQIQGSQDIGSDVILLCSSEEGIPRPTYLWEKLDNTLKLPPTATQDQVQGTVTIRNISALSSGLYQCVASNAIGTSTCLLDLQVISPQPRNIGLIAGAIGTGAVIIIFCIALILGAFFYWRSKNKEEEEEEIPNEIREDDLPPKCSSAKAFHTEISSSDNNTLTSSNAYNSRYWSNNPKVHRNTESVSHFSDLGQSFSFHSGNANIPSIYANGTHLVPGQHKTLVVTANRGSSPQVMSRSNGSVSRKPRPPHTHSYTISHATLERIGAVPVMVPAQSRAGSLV
Put plainly: FACS, DMS 273 cells.

Assay [7] deals with T7, His-tagged extracellular domain (ECD) of human IGSF11 (VSIG3) (human, UniProt Q5DX21 23-241).
T7 construct: partly bought (SinoBiological 13094-H08H); also called IGSF11-HIS; HIS-IGSF11; not shown: HIS6 tag
T7 sequence: T2 sequence
Put plainly: ELISA EC50 grade, IgG1.

Assay [8] has as its target T6, human IGSF11 (VSIG3) on cells. Put plainly: FACS, HEK cells expressing IGSF11.
Assay [9] shares this target. Kind of assay: FACS, IgG1-format antibodies; DMS 273 cells (D) treated with IGSF11 siRNA (KD).
Assay [10] shares this target. Put plainly: FACS, IgG1-format antibodies; M579-A2-luc cells (M) treated with IGSF11 siRNA (KD).
Assay [11] has the same target. Kind of assay: FACS, IgG1-format antibodies; DMS 273 cells (D) treated with scrambled control siRNA (SC).
Assay [12] shares this target. Kind of assay: FACS, IgG1-format antibodies; M579-A2-luc cells (M) treated with scrambled control siRNA (SC).
Assay [13] shares this target. Put plainly: FACS, IgG1-format antibodies; CL-11 cells (C), a line that does not express IGSF11 (specificity control), IGSF11 siRNA (KD).
Assay [14] has the same target. Kind of assay: FACS, IgG1-format antibodies; CL-11 cells (C), a line that does not express IGSF11 (specificity control), scrambled control siRNA (SC).
For assay [15], the target named is T8, IGSF11 ECD fused to murine-Fc (human; mouse, UniProt Q5DX21 23-241).
T8 construct: also called Fc-fusion IGSF11 ECD; full-length ECD of IGSF11; not shown: murine Fc
T8 sequence: T2 sequence
Put plainly: ELISA, IgG.

For assay [16], the target named is T6, human IGSF11 (VSIG3) on cells. Kind of assay: FACS, MDA-MB-231-IGSF11 cells, IgG.
Excerpt: as §1
For assay [17], the target named is T8, IGSF11 ECD fused to murine-Fc. Kind of assay: ELISA, IgG. This is another data set of the same source.
Excerpt: Expi293 cells (ThermoFisher) were transiently transfected with DNA sequences encoding the applicable IGSF11 domain-mFc fusions according to the manufacturer's instructions, and cultured under conditions suitable to the IGSF11 domain fusion. Cell supernatants were harvested 5 days post transfection and the expressed Fc-protein purified via Protein A affinity chromatography (GE Healthcare). IGSF11 domain Fc-fusion proteins were re-buffered into PBS pH7.4. […] The surface was blocked with 2% (w/v) skim milk powder in PBST. After three wash cycles with PBST, a dilution series of IgG-format ABPs was transferred to the immobilized the Fc-fusion IGSF11 ECD or the IGSF11 domains and incubated for 1 h. After removing all unbound antibodies by 3 wash cycles with PBST, bound IgG ABPs were detected with a goat anti-human IgG antibody conjugated with horseradish peroxidase. After three wash cycles with PBST the ELISA was developed with TMB substrate.
Assay [18] concerns the target T2, recombinant human IGSF11 (VSIG3) …. Kind of assay: SPR, IgG1. Background: In SPR one partner is held on a chip, and binding of the other changes the refractive index at the surface.

Description for Streptavidin: as §2

B1: C-016 (IgG1 format) (antibody, V domains shown)
VH: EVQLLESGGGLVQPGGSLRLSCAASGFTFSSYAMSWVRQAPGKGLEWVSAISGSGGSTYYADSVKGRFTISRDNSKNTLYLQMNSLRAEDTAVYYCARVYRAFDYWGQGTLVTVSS
VL: ASVLTQPPSVSAAPGQKVTISCSGSSSNIGNNYVSWYQQLPGTAPKLLIYDNNKRPSGIPDRFSGSKSGTSATLGITGLQAEDEADYYCHLYTEAESHWVFGGGTKLTVL
notes: wildtype human IgG1 and kappa or lambda constant regions
For orientation: EC50 means the concentration at which the effect is half-maximal. As for B1, the EC50 with murine IGSF11 on cells [1] lay in the range of 20 to 50 nM; with murine IGSF11 on cells [2], 50 to 100 nM.

B2: C-004 (Fab format) (Fab, V domains shown)
VH: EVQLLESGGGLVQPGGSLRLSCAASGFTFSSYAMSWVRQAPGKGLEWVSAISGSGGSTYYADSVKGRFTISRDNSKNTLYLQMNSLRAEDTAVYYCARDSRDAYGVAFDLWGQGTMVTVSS
VL: B1 VL with H90L, L91T, Y92W, E94G, E96G, S97R, H98I, W99F
notes: Fab in E. coli lysate
As for B2, the A450 was < 1 in [3], < 1 in assay [4], < 1 in assay [5] and < 0.1 with Streptavidin.

B3: A-007 (IgG1 format) (antibody, V domains shown)
VH: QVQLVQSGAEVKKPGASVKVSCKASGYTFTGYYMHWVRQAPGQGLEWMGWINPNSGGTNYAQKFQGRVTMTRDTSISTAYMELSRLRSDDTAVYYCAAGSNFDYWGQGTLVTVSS
VL: QSALTQPASVSGSPGQSITIACTGSSSDIGSFSYVSWYQQRPGKAPTLIIYGVNNRPLGVSRRFSGSKSGNTASLSISGLQAEDEADYYCSSYTRRSTVIFGGGTKLTVL
notes: human IgG1 format
Turning to B3, the EC50 in assay [6] is < 10 nM; in assay [7] it was < 0.02 nM; in assay [8], < 10 nM. The “percentage binding (FACS heat-map)” value in [9] was 34.2%; in assay [10], 9.15%; in [11] it was 82.3%; in assay [12], 65.6%; in [13], 13.2%; in [14], 8.88%.

B4: C-013 (Fab format) (Fab, V domains shown)
VH: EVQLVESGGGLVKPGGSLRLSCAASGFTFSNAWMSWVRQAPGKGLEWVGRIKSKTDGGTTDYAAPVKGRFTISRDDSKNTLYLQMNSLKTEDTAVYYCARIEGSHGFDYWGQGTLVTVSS
VL: SYELTQPPSVSVSPGQTASITCSGDKLGDKYASWYQQKPGQSPVLVIYQDSKRPSGIPERFSGSNSGNTATLTISGTQAEDEADYYCASYLHTPKQFVFGGGTKLTVL
notes: Fab in E. coli lysate
For the molecule B4, the A450 in [3] is < 1; with Streptavidin, < 0.1.

B5: C-027 (Fab format) (Fab, V domains shown)
VH: QVQLVQSGAEVKKPGSSVKVSCKASGGTFSSYAISWVRQAPGQGLEWMGGIIPIFGTANYAQKFQGRVTITADESTSTAYMELSSLRSEDTAVYYCARENIPSYYDSSGRQDAFDIWGQGTMVTVSS
VL: B4 VL with A88Q, T93K, P94S, K95H, Q96G, F97A
notes: Fab in E. coli lysate
Consider B5, for which the A450 in assay [3] was < 1; in [5] it was < 1; with Streptavidin, < 0.1.

B6: C-010 (Fab format) (Fab, V domains shown)
VH: QVQLVQSGAEVKKPGSSVKVSCKASGGTFSSYAISWVRQAPGQGLEWMGGIIPIFGTANYAQKFQGRVTITADESTSTAYMELSSLRSEDTAVYYCARGYGEYYPAFDVWGQGTLVTVSS
VL: B4 VL with L91A, P94H, K95S, Q96T, F97W
notes: Fab in E. coli lysate
Turning to B6, the A450 was < 1 in assay [4], < 1 in [5] and < 0.1 with Streptavidin.

B7: C-006 (Fab format) (Fab, V domains shown)
VH: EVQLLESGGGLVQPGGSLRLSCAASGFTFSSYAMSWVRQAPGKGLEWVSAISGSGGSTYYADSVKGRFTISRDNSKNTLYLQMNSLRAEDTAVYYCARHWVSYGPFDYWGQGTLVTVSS
VL: DIQMTQSPSSLSASVGDRVTITCRASQSISSYLNWYQQKPGKAPKLLIYAASSLQSGVPSRFSGSGSGTDFTLTISSLQPEDFATYYCQQSHQSPPITFGQGTKVEIK
notes: Fab in E. coli lysate
For B7, the A450 in assay [5] was < 1.

B8: C-017 (IgG1 format) (antibody, V domains shown)
VH: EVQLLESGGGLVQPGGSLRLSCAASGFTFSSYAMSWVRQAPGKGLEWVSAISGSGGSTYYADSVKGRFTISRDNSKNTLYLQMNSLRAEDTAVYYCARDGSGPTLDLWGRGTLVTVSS
VL: B7 VL with S91H, H92R, Q93Y, S94I, I97W
notes: as for B1
As to B8, the EC50 in assay [15] is 1 to 20 nM; in the assay with murine IGSF11 on cells [1], 20 to 50 nM; with murine IGSF11 on cells [2], 50 to 100 nM; in assay [16] it was 15 to 25 nM.

B9: C-012 (Fab format) (Fab, V domains shown)
VH: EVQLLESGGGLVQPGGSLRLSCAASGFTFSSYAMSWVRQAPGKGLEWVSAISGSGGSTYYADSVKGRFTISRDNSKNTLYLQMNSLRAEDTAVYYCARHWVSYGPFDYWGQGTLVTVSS
VL: B7 VL
notes: Fab in E. coli lysate
As for B9, in [5], the A450 was < 1.

B10: A-022 (IgG1 format) (antibody, V domains shown)
VH: EVQLLESGPGLVKPSQTLSLTCTVSGGSISSGGYYWSWIRQHPGKGLEWIGYIYYSGSTYYNPSLKSRVTISVDTSKNQFSLKLSSVTAADTAVYYCARASRSTDYYFDYWGQGTLVTVSS
VL: QPGLTQPPSMSYGLGQTATLTCTGNRNNIGDQGAAWLQQHQGHPPKLLSYRNNNGPSGISERLSASRSGNTASLTISGLQPEDEADYYCSAWDSSLRAWVFGGGTKLTVL
notes: human IgG1 format
Take B10: the half-maximal effective concentration (EC50) in assay [17] is < 1 nM; in assay [6] it was 10 to 50 nM; in assay [7], < 0.02 nM; in assay [8] it was 10 to 50 nM.

B11: A-013 (IgG1 format) (antibody, V domains shown)
VH: EVQLVESGGGLIQPGGSLRLSCAASGFTVSSNYMSWVRQAPGKGLEWVSVIYSGGSTYYADSVKGRFTISRDNSKNTLYLQMNSLRAEDTAVYYCARGNPYYYGDLQVNFDYWGQGTLVTVSS
VL: QAVVTQEPSLTVSPGGTVTLTCASSTGAVTSAYYPNWFQQKPGQAPRALIYSTSNKHSWTPARFSGSLLGGKAALTLSGVQPEDEADYYCLLYYGGAWVFGGGTKLTVL
notes: human IgG1 format
In general, Kd refers to the constant that tells how readily two partners part at equilibrium. For B11, in assay [18], the Kd was 100 to 250 nM. Besides, the results for the EC50 in assay [6], in assay [7] and in assay [8] were > 50 nM, < 0.02 nM and 10 to 50 nM, respectively.
